From publication PMC4002113, “The p97-FAF1 Protein Complex Reveals a Common Mode of p97 Adaptor Binding*” (The Journal of Biological Chemistry, 2014)
Where “and” joins values, the source holds several entries; their conditions need not be identical. Equal entries are not always repeated.

Legend:
[1] = target: T1, C-terminally His-tagged full-length p97 (residues 1–806) (murine, UniProt Q01853 1-806); assay: ITC; full-length p97 in the cell at 10–50 μM, FAF1 or FAF1 truncation as titrant at 7.5 to 10 times the cell concentration; 20 mM HEPES, 150 mM KCl, pH 7.4; 30 °C; average of two measurements; details: both partners purified
T1 construct: p97 (VCP), murine, full length, residues 1–806, in PET22b; Hexamer, with a minor dodecamer, by SV-AUC; also called VCP; valosin-containing protein
T1 sequence (Q01853 whole entry, the tested form may be a part): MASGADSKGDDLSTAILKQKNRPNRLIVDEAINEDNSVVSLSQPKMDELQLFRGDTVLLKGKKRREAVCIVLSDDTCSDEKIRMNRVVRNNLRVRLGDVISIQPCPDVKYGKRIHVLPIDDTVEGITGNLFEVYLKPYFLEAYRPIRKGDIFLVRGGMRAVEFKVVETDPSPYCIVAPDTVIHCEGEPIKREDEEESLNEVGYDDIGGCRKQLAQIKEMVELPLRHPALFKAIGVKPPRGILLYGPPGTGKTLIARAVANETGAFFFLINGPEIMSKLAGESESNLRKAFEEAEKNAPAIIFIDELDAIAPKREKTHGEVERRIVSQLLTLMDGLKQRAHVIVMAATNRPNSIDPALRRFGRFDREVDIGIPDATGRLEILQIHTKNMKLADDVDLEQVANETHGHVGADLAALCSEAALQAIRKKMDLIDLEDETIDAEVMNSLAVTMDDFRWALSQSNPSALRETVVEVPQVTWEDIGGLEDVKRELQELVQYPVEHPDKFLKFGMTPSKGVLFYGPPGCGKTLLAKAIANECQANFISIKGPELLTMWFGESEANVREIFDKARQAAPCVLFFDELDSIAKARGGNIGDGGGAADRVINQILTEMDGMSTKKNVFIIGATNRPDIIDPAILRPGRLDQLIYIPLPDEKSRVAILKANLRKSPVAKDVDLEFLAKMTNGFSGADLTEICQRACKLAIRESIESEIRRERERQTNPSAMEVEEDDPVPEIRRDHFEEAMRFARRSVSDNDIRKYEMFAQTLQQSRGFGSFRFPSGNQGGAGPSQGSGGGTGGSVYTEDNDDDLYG

[2] = target: the molecule itself; assay: native MS; full-length FAF1 at 10 μM in 200 mM ammonium acetate pH 7.5; Q-ToF modified for high mass detection
[3] = target: T1, C-terminally His-tagged full-length p97 …; assay: MST; 0.06 μM dye-labelled FAF1 kept constant, full-length p97 titrated between 135 and 0.0041 μM; 20 mM HEPES, 150 mM KCl, pH 7.4; 30 °C; average of two experiments, Hill equation fit; details: both partners purified
[4] = target: the molecule itself; assay: cross-linking; 15 μM FAF1 or truncation in SEC buffer with ethyl glycol bissuccinimidyl succinate (EGS), 15 min at room temperature, stopped with Tris, SDS-PAGE

B1: N-terminally His-tagged full-length FAF1 (natural protein, murine, UniProt P54731 1-649, looked up)
chain: MASNMDREMILADFQACTGIENIDEAITLLEQNNWDLVAAINGVIPQENGILQSDFGGETMPGPTFDPASHPAPASTPSSSAFRPVMPSRQIVERQPRMLDFRVEYRDRNVDVVLEDSCTVGEIKQILENELQIPVPKMLLKGWKTGDVEDSTVLKSLHLPKNNSLYVLTPDLPPPSSSSHAGALQESLNQNFMLIITHREVQREYNLNFSGSSTVQEVKRNVYDLTSIPVRHQLWEGWPASATDDSMCLAESGLSYPCHRLTVGRRTSPVQTREQSEEQSTDVHMVSDSDGDDFEDASEFGVDDGEVFGMASSTLRKSPMMPENAENEGDALLQFTAEFSSRYGDCHPVFFIGSLEAAFQEAFYVKARDRKLLAIYLHHDESVLTNVFCSQMLCAESIVSYLSQNFITWAWDLTKDTNRARFLTMCNRHFGSVIAQTIRTQKTDQFPLFLIIMGKRSSNEVLNVIQGNTTVDELMMRLMAAMEIFSAQQQEDIKDEDEREARENVKREQDEAYRLSLEADRAKREAHEREMAEQFRLEQIRKEQEEEREAIRLSLEQALPPEPKEENAEPVSKLRIRTPSGEFLERRFLASNKLQIVFDFVASKGFPWDEFKLLSTFPRRDVTQLDPNKSLLEVNLFPQETLFLQAKE
modifications: NanoTemper495-N-hydroxysuccinimide blue/red dye label (in the MST only)
notes: Fas-associated factor 1 (FAF1), full length, in pProEx; the truncations end at residue 649; N-terminally His-tagged FAF1 was used for all experiments except nanogold labelling; also called Fas-associated factor 1; His-tagged FAF1; source: held on the nickel column from cleared lysate in the pull-down; not shown: His tag, N-terminal, kept
With B1 the “KD site 1 (two-site model)” value [1] was 0.8 µM, the “KD site 2 (two-site model)” value [1] was 19 µM and the Kd [1] was 5.2 µM. For the same binder, the “stoichiometry N” value [1] was 0.8 ± 0.03 FAF1 per p97, the “stoichiometry N” value [2] was 2 and 3 and the Kd [3] was 0.13 µM.

B2: FAF1-CC-UBX(491–649) (domain or fragment, murine, UniProt P54731 491-649, looked up)
chain: QEDIKDEDEREARENVKREQDEAYRLSLEADRAKREAHEREMAEQFRLEQIRKEQEEEREAIRLSLEQALPPEPKEENAEPVSKLRIRTPSGEFLERRFLASNKLQIVFDFVASKGFPWDEFKLLSTFPRRDVTQLDPNKSLLEVNLFPQETLFLQAKE
notes: Fas-associated factor 1 (FAF1), residues 491–649 (coiled-coil and UBX domains), in pGEx; also called coiled-coil and UBX domains of FAF1; source: E. coli Rosetta 2 (autoinduction), purified (GSTrap, GST cleaved with HRV 3C, size-exclusion chromatography)
For B2, the “KD site 1 (two-site model)” value [1] was 0.7 µM, the “KD site 2 (two-site model)” value [1] was 12 µM and the Kd [1] was 4.9 µM. The “stoichiometry N” value [1] was 0.89 ± 0.3 FAF1-CC-UBX per p97 and the “stoichiometry N” value [4] was 3.

B3: FAF1-UBX(550–649) (domain or fragment, murine, UniProt P54731 550-649, looked up)
chain: EAIRLSLEQALPPEPKEENAEPVSKLRIRTPSGEFLERRFLASNKLQIVFDFVASKGFPWDEFKLLSTFPRRDVTQLDPNKSLLEVNLFPQETLFLQAKE
notes: Fas-associated factor 1 (FAF1), residues 550–649 (UBX domain), in pGEx; also called UBX domain of FAF1; source: E. coli Rosetta 2 (autoinduction), purified (GSTrap, GST cleaved with HRV 3C, size-exclusion chromatography)
In the case of B3, the Kd [1] is reported as 3.9 µM and the “stoichiometry N” value [1] is reported as 0.98 ± 0.1 FAF1-UBX per p97.
